Biological target: GST-H486R optineurin (human) (UniProt Q96CV9)
Test: pull-down; GST-optineurin or GST-H486R on glutathione agarose beads incubated 6-8 hours with lysates of HeLa cells transfected with HA-CYLD; anti-HA immunoblot

Sequence of UniProt Q96CV9 (Q96CV9 whole entry H486R): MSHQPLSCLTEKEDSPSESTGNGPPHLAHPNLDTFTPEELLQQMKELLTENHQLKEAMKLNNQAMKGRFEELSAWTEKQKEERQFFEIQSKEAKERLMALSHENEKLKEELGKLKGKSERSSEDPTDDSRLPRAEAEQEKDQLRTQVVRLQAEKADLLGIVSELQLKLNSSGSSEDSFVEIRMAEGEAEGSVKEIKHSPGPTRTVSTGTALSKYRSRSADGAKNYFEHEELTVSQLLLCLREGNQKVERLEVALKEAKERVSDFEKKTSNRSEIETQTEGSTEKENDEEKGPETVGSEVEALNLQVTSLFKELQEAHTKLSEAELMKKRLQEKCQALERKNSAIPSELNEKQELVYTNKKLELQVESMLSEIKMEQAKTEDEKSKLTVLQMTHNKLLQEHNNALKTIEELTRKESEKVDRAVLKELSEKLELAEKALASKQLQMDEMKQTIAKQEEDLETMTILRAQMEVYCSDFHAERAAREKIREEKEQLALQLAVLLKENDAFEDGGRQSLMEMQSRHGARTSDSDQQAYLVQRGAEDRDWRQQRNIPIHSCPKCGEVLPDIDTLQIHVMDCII

HA-tagged CYLD (CYLD cDNA obtained in the yeast two-hybrid screen, in pCDNA3.1-HA) (from UniProt Q9NQC7 403-956) (domain or fragment)
fold less binding than wild type optineurin: 5 fold
